Reference: the Human Domainome abundance scans (Beltran et al. 2025)

B1: Apoptosis-associated speck-like protein containing a CARD, residues 114 to 194; numbered along this chain, Q9ULZ3 (parent)
chain: FIDQHRAALIARVTNVEWLLDALYGKVLTDEQYQAVRAEPTNPSKMRKLFSFTPAWNWTCKDLLLQALRESQSYLVEDLER

Variants of: B1
Assay: abundance fitness (aPCA) (normalised: wild type 0, dead -1); higher = more abundant; growth selection in yeast, the domain comes from the species named
Settings: Homo sapiens

Abundance fitness: each site, then its substitutions
Y33: K -0.342 | V 0.136 | T -0.188 | P -0.654 | C 0.121 | M -0.189 | E -0.59 | G -0.69 | F -0.277 | A -0.1 | Q -0.546 | S -0.376 | I -0.097 | W -0.524 | L -0.204
G25: C -0.582 | W -0.325 | I -0.543 | V -0.779 | A -0.43 | H -0.213 | P 0.191 | F -0.931 | T -0.81 | L -0.45 | K 0.025 | R -0.445 | D -0.255 | S -0.701 | Q -0.41 | Y -0.55
V36: N -0.823 | S -0.334 | I -0.143 | M -0.837 | A -0.46 | H -0.819 | C 0.04 | G -0.691 | L -0.846 | D -0.79 | Y -0.973 | P -0.89 | W -0.74 | E -0.801 | K -0.325 | F -0.548 | T -1.01 | R -0.833
L23: H -0.698 | F -0.737 | M -0.392 | V -0.611 | A -0.753 | E -0.719 | Q -0.739 | C -0.444 | R -0.83 | N -1.06 | G -0.911 | S -0.879 | W -0.939 | T -0.943 | I -0.564 | K -0.645 | Y -0.586 | D -0.962
Y24: T -0.654 | A -0.254 | V -0.054 | F -0.594 | W -0.301 | N -0.078 | L -0.035 | R 0.109 | I -0.395 | D -0.157 | M -0.501 | G -0.483 | S -0.319 | K 0.255 | H 0.067 | P -0.598 | Q -0.217
A22: R 0.094 | V -0.476 | G -0.4 | Y -0.004 | K 0.331 | N -0.08 | M -0.183 | I 0.126 | Q 0.063 | L -0.135 | P -1 | H -0.116 | C -0.127 | S -0.057 | D -0.302 | T -0.146 | W -0.183
W18: S 0.163 | T 0.053 | Q 0.174 | V 0.107 | R 0.076 | Y 0.186
K26: P -0.369 | D -0.483 | T 0.014 | Y -0.658 | S -0.081 | W -0.481 | N -0.314 | C -0.262 | L -0.438 | M -0.563 | G -0.513 | A -0.371 | H -0.422 | E -0.323 | I -0.094 | V -0.106 | F -0.47 | Q -0.249 | R -0.178
Q34: M -0.329 | Y -0.332 | F -0.433 | E -0.052 | D -0.185 | S -0.388 | W -0.123 | P -0.817 | H 0.05 | G -0.599 | N -0.004 | V -0.417 | L -0.295 | K -0.143 | I -0.81 | R -0.003 | T -0.285 | C -0.3
V27: A -0.21 | I -0.392 | R -0.909 | L -0.65 | W -0.734 | T -0.675 | Q -0.613 | E -0.731 | S -0.583 | H -0.764 | F -0.413 | C 0.002 | K -1.09 | M -0.722 | D -0.904 | G -0.419
L20: D -0.518 | I -0.179 | N -0.797 | G -0.901 | C 0.005 | S -0.583 | Y -0.626 | P -0.543 | Q -0.854 | V -0.388 | M -0.458 | F -0.621 | R -0.917 | E -0.723
A38: K -0.088 | P -0.935 | N -0.308 | S -0.056 | H -0.226 | T -0.552 | F -0.312 | C -0.297 | Q -0.179 | D -0.258 | V -0.419 | E -0.15 | W -0.861 | I -0.413 | M -0.11 | Y -1.08 | L -0.176
L19: M -0.787 | P -0.787 | D -0.395 | W -0.643 | Y 0.243 | S -0.853 | G -0.827 | N -0.704 | V -0.051 | A -0.319 | R -0.906 | Q -0.439 | F -0.781 | E -0.882 | T -0.912 | K -0.922 | I -0.122
D30: E -0.013 | C -0.539 | W -0.26 | K -0.416 | P -0.213 | Q -0.199 | R -0.254 | H 0.094 | V -0.339 | I -0.309 | A -0.165 | L -0.097 | N -0.325 | G -0.545 | T -0.193 | Y -0.293 | S -0.249
E31: W -0.463 | A -0.252 | K -0.65 | H -0.823 | C -0.832 | Y -0.477 | T -0.465 | Q -0.38 | M -0.693 | N -0.327 | P -0.735 | R -0.238 | D -0.161 | F -0.82 | I -0.581 | L -0.461 | S -0.263 | G -0.469
Q32: W -0.873 | A -0.911 | C -0.68 | D -0.842 | T -0.507 | S -0.598 | G -0.725 | R -0.917 | E -0.276 | Y -0.891 | N -0.873 | P -0.941 | L -0.95 | I -0.772 | V -0.862 | F -0.829
E39: G -0.669 | A -0.474 | C -0.088 | H -0.79 | F -0.714
R37: F -0.509 | V -0.148 | Q -0.008 | P -0.792 | C -0.208 | M 0.136 | I 0.063 | L 0.067 | T -0.182 | S -0.104 | G -0.479 | D -0.219 | W -0.373 | E -0.304 | H -0.252 | Y -0.118 | N -0.1 | A 0.039 | K -0.111
D21: L -0.695 | T -0.313 | F -0.801 | I -0.69 | W -0.496 | Y -0.805 | R -0.33 | N -0.264 | Q -0.115 | P -0.987 | H -0.162 | E -0.091 | C -0.466 | A -0.477 | K -0.287 | M -0.292 | G -0.331
T29: A -0.585 | D -0.626 | I -0.825 | N -0.338 | S -0.208
L28: I -0.119 | K -0.807 | S -0.812 | N -0.805 | Q -0.931 | F -0.896 | E -0.817 | R -0.871 | W -0.798 | A -0.732 | V -0.734 | M -0.767 | D -0.935 | P -0.878 | Y -0.783
A35: V -0.365 | G -0.472 | T -0.348 | S -0.08 | W -0.957 | F -0.84 | I -0.862 | L -0.218 | N -0.851 | K -0.224 | P -0.664 | Q -0.011 | E -0.064 | R -0.491
